The source of these data is patent US8168592B2 (Amgen Inc., priority 2005, dated 2012).

In general, share remaining refers to the share of the starting amount still present when the sample was taken. Read a high share remaining as less turnover. As a reminder, the MRT is the average time that molecules of a dose stay in the body. As usually defined, the Vss is the apparent volume that relates the amount in the body to the concentration in plasma or blood. In general, CL/F refers to clearance divided by bioavailability, as obtained after extravascular dosing. Usually Cmax stands for the peak of the concentration-time curve. Usually Tmax stands for the time from dosing to the highest level.

PEG = not defined here

Series [1] in a line: in vitro stability in 10% human plasma, LC-MS/MS. The class given is in vitro ADME. As to conditions: room temperature, 100 ng/ml; for % Remaining: 0 h. As to the method: (§1) Consequently, the stability of select, non-PEGylated analogs was evaluated in vitro in the presence of 10% rat or human plasma. Briefly, samples of each peptide were diluted to 100 ng/ml into PBS containing 10% of rat or human plasma. Each sample was then incubated at room temperature and analyzed by LC-MS/MS to quantitate the intact peptide remaining at select time points over 6 hours.

Series [2] can be described thus: in vitro stability in 10% rat plasma, LC-MS/MS. The class given is in vitro ADME. To be noted: room temperature, 100 ng/ml; for % Remaining: 0 h. As to the method:
as §1

For a further series, the target named is T1, CGRP1 receptor (Homo sapiens, UniProt O60894+Q16602).
T1 construct: SK-N-MC cells express CRLR and RAMP1, which form CGRP1 receptor; endogenous in cells; host or cells: SK-N-MC human neuroblastoma cells
Put plainly: in vitro CGRP1 receptor mediated cAMP assay in SK-N-MC cells. The series is classed as cell-based. In outline: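 Human SK-N-MC neuroblastoma cells, which endogenously express CRLR/RAMP1, were plated two days before assay and preincubated in plasma-free medium for 15 minutes at room temperature. Cells were then lysed for 30 minutes at 37° C, and cAMP in the lysates was quantified by competitive cAMP-AP chemiluminescent ELISA.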

Series [3] in a line: rat pharmacokinetic studies. To be noted: 2 mg/kg; for AUC0-inf / AUC0-t / CL / MRT / Vss / t1/2 / CL/F / Cmax / Tmax / F %: rat, mean, n = 3.
Protocol: Rat pharmacokinetic studies. […] There were three rats per group (n=3), each weighing 250-325 g. Each group received either a 2 mg/kg intravenous or subcutaneous discrete administration. The approximate dose volume was 0.3 mL per rat. Approximately 0.25 mL of whole blood was taken per time point at the following post-dose collection times for the intravenous groups (in hours): 0.083, 0.25, 0.5, 1, 2, 4, 6, 8, 24, 48, 72, 96 and the following time points for the subcutaneous groups (in hours): 0.25, 0.5, 1, 2, 4, 6, 8, 24, 48, 72, 96. Whole blood samples were collected in microtainer vials containing EDTA as anticoagulant and were kept on wet ice until processed for plasma. The plasma was obtained by centrifuging the whole blood for approximately 5 min at 11,500 rpm. Plasma was transferred to new tubes and stored frozen at approximately −70° C. until quantitative analysis. […] The individual sample concentrations for each time point were averaged (n=3) within a given dose group using Excel 2000 software. The averaged plasma concentration-time data were analyzed by noncompartmental methods using WinNonlin v.3.3 software. Nominal sample times were used in the pharmacokinetic analysis. The area under the concentration-time curve was calculated using the linear/log trapezoidal method to determine exposure.

T1 sequence (Q16602 23-461): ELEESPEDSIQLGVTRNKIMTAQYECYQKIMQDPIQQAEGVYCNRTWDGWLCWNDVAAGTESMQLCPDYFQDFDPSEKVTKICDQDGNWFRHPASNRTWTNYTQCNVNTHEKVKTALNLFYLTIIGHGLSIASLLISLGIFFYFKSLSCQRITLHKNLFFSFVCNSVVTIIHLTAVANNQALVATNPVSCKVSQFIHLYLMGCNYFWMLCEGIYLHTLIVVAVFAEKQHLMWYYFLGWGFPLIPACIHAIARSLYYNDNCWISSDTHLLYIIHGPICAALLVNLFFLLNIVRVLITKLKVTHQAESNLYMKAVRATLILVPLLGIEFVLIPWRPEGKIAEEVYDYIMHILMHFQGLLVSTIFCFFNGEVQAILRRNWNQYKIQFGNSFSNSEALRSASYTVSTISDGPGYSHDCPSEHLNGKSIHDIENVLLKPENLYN
T1 sequence (O60894 27-148): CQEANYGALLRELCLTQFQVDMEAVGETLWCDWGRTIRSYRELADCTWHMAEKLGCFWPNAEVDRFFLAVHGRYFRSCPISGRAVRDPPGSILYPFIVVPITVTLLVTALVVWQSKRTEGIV

Regarding `CC(=O)N[C@@H](Cc1c[nH]c2ccccc12)C(=O)N[C@H](C(=O)N[C@H](C(=O)N[C@@H](Cc1cnc[nH]1)C(=O)N[C@@H](CCCCNC(=N)N)C(=O)N[C@@H](CC(C)C)C(=O)N[C@@H](C)C(=O)NCC(=O)N[C@@H](CC(C)C)C(=O)N[C@@H](CC(C)C)C(=O)N[C@@H](CO)C(=O)N[C@@H](CCCCNC(=N)N)C(=O)N[C@@H](CO)C(=O)NCC(=O)NCC(=O)N[C@H](C(=O)N[C@H](C(=O)N[C@@H](CCCNC(=N)N)C(=O)N[C@@H](CCCCN)C(=O)N[C@@H](CC(N)=O)C(=O)N[C@@H](Cc1ccccc1)C(=O)N[C@H](C(=O)N1CCC[C@H]1C(=O)N[C@H](C(=O)N[C@@H](CC(=O)O)C(=O)N[C@H](C(=O)NCC(=O)N1CCC[C@H]1C(=O)N[C@@H](Cc1ccccc1)C(=O)N[C@@H](C)C(=O)N[C@@H](Cc1ccccc1)C(N)=O)C(C)C)[C@@H](C)O)C(C)C)C(C)C)C(C)C)[C@@H](C)O)C(C)C` [SEQ ID NO: 25], in series [1], the “% Remaining” value was found to be 100.0%; the share remaining at 0.17 h, 100 ng/ml turned out to be 88.3%; the share remaining at 0.5 h, 100 ng/ml is 47.3%; the fraction remaining at 1 h, 100 ng/ml came out at 28.7%. In series [1], this compound gave an amount remaining at 2 h, 100 ng/ml of 11%; a share remaining at 3 h, 100 ng/ml of 5.4%; a share remaining at 4 h, 100 ng/ml of 3.1%; an amount remaining at 5 h, 100 ng/ml of 3.6%. The compound further displayed a fraction remaining at 6 h, 100 ng/ml in series [1] of 2.8%.

Consider `CC(=O)N[C@@H](Cc1c[nH]c2ccccc12)C(=O)N[C@H](C(=O)N[C@H](C(=O)N[C@@H](Cc1cnc[nH]1)C(=O)N[C@@H](CCCCNC(=N)N)C(=O)N[C@@H](CC(C)C)C(=O)N[C@@H](C)C(=O)NCC(=O)N[C@@H](CC(C)C)C(=O)N[C@@H](CC(C)C)C(=O)N[C@@H](CO)C(=O)N[C@@H](CCCCNC(=N)N)C(=O)N[C@@H](CO)C(=O)NCC(=O)NCC(=O)N[C@H](C(=O)N[C@H](C(=O)N[C@@H](CCCNC(=N)N)C(=O)N[C@@H](CCCCN)C(=O)N[C@@H](CC(N)=O)C(=O)N[C@@H](Cc1ccccc1)C(=O)N[C@H](C(=O)N1CCC[C@H]1C(=O)N[C@H](C(=O)N[C@@H](CC(=O)O)C(=O)N[C@H](C(=O)NCC(=O)N1CCC[C@H]1C(=O)N[C@@H](Cc1ccccc1)C(=O)N[C@@H](C)C(=O)N[C@@H](Cc1ccccc1)C(N)=O)C(C)C)[C@@H](C)O)C(C)C)C(C)C)C(C)C)[C@@H](C)O)C(C)C` [compound 25], for which, in series [2], the “% Remaining” value amounted to 100.0%; the share remaining at 0.5 h, 100 ng/ml was found to be 76.9%; the share remaining at 1 h, 100 ng/ml came out at 58.1%; the fraction remaining at 2 h, 100 ng/ml was determined as 27.5%. In series [2], this compound yielded a fraction remaining at 3 h, 100 ng/ml of 21.3%; a fraction remaining at 4 h, 100 ng/ml of 16.3%; an amount remaining at 5 h, 100 ng/ml of 11%; a fraction remaining at 6 h, 100 ng/ml of 7.1%.

Consider “Ac-WVTHQLAGLLSQSGGVVRKNFVPTDVGPFAF-NH2 [SEQ ID NO: 39]”, for which, in series [1], the “% Remaining” value is 100.0%; the share remaining at 0.17 h, 100 ng/ml is 74.2%; the share remaining at 0.5 h, 100 ng/ml came out at 54%; the share remaining at 1 h, 100 ng/ml stood at 50.2%. In series [1], this compound registered a share remaining at 2 h, 100 ng/ml of 36.7%; a fraction remaining at 3 h, 100 ng/ml of 15.8%; an amount remaining at 4 h, 100 ng/ml of 11.3%; an amount remaining at 5 h, 100 ng/ml of 6.3%. Further, the fraction remaining at 6 h, 100 ng/ml in series [1] came out at 5.2%.

With “Ac-WVTHQLAGLLSQSGGVVRKNFVPTDVGPFAF-NH2 [compound 39]”, in series [2], the “% Remaining” value was determined as 100.0%; the fraction remaining at 0.5 h, 100 ng/ml was 83.8%; the amount remaining at 1 h, 100 ng/ml worked out at 66.2%; the amount remaining at 2 h, 100 ng/ml stood at 29.9%. In series [2], this compound gave an amount remaining at 3 h, 100 ng/ml of 20.4%; an amount remaining at 4 h, 100 ng/ml of 11.8%; an amount remaining at 5 h, 100 ng/ml of 6.4%; a share remaining at 6 h, 100 ng/ml of 4%.

“Ac-WVTHRLAGLLSQSGGVVRKNFVPTDVGPFAF-NH2 [SEQ ID NO: 37]”: in series [1], the “% Remaining” value amounted to 100.0%; the fraction remaining at 0.17 h, 100 ng/ml was 59%; the amount remaining at 0.5 h, 100 ng/ml is 20.6%; the fraction remaining at 1 h, 100 ng/ml was 10%. In series [1], this compound displayed a fraction remaining at 2 h, 100 ng/ml of 2.3%; a fraction remaining at 3 h, 100 ng/ml of 1.3%; a share remaining at 4 h, 100 ng/ml of 0.7%; a fraction remaining at 5 h, 100 ng/ml of 0.7%. The compound further gave a fraction remaining at 6 h, 100 ng/ml in series [1] of 0%.

Regarding “Ac-WVTHRLAGLLSQSGGVVRKNFVPTDVGPFAF-NH2 [compound 37]”, in series [2], the “% Remaining” value was 100.0%; the share remaining at 0.5 h, 100 ng/ml amounted to 62.7%; the share remaining at 1 h, 100 ng/ml was 39.5%; the amount remaining at 2 h, 100 ng/ml worked out at 10.5%. In series [2], this compound had a share remaining at 3 h, 100 ng/ml of 4.7%; an amount remaining at 4 h, 100 ng/ml of 2.5%; an amount remaining at 5 h, 100 ng/ml of 1.3%; a share remaining at 6 h, 100 ng/ml of 0.7%.

Take “SEQ ID NO:32 (WVTHXLAGLLSXSGGVVRKNFVPTDVGPFAF; CGRP peptide; MOD_RES (1)..(1): …ON; MISC_FEATURE (5)..(5): xaa=citrulline; MISC_FEATURE (12)..(12): xaa=citrulline; MISC_FEATURE (19)..(19): PEGylated; MOD_RES (31)..(31): AMIDATION)”: the “antagonist activity in cAMP assay, in words” value in the series with CGRP1 receptor is “relatively minor loss of in vitro antagonist activity”. Further, the “mean residence time (MRT) longer compared to SEQ ID NO:15” value in series [3] (intravenous) is listed as 4 times. Also, in series [3] (subcutaneous), the “bioavailablity (F %)” value is listed as 47% and the “exposure (AUC) increase compared to SEQ ID NO:15” value was “about 15 fold”.

In series [3] (IV), “SEQ ID NO: 15: 20 kDa PEG conjugate of SEQ ID NO:7 (reductive alkylation) (Ac-WVTHRLAGLLSRSGGVVRK(20 kDa PEG)NFVPTDVGPFAF-NH2)” gave an AUC0-inf of 12959 ng·h/mL, an AUC0-t of 12940 ng·h/mL, a CL of 2.57 mL/min/kg and an MRT of 1.10 h. For the same compound, in series [3] (IV), the Vss was 0.174 L/kg and the t1/2 is on record as 10.60 h. Besides, in series [3] (SC), the “AUC0-inf” value is 1542 ng·h/mL, the AUC0-t turned out to be 1264 ng·h/mL, the apparent clearance CL/F worked out at 20.95 mL/min/kg and the Cmax is on record as 137 ng/mL. Further, in series [3] (SC), the Tmax is given as 2.00 h and the t1/2 stood at 22.37 h.

Consider “SEQ ID NO: 26: PEGylated double homoarginine analog (WVTHXLAGLLSXSGGVVRKNFVPTDVGPFAF; PEGylated; homoarginine residues; CGRP peptide; MOD_RES (1)..(1): …ON; MISC_FEATURE (5)..(5): xaa=homoarginine; MISC_FEATURE (12)..(12): xaa=homoarginine; MISC_FEATURE (19)..(19): PEGylated; MOD_RES (31)..(31): AMIDATION)”, for which, in series [3] (IV), the AUC0-inf worked out at 24555 ng·h/mL, the AUC0-t was found to be 24546 ng·h/mL, the CL is 1.35 mL/min/kg and the MRT is listed as 1.01 h. Further, in series [3] (IV), the Vss stood at 0.083 L/kg and the t1/2 is listed as 7.39 h. Also, in series [3] (SC), the “AUC0-inf” value came out at 1204 ng·h/mL, the AUC0-t was 1188 ng·h/mL, the apparent clearance (CL/F) amounted to 27.67 mL/min/kg and the Cmax is recorded as 143 ng/mL. Besides, in series [3] (SC), the Tmax is on record as 2.00 h and the t1/2 is on record as 26.17 h.

In the case of “SEQ ID NO: 32: PEGylated R11Cit, R18Cit analog (product of SEQ ID NO:31) (WVTHXLAGLLSXSGGVVRKNFVPTDVGPFAF; PEGylated; citrulline at 11 and 18; CGRP peptide; MOD_RES (1)..(1): …ON; MISC_FEATURE (5)..(5): xaa=citrulline; MISC_FEATURE (12)..(12): xaa=citrulline; MISC_FEATURE (19)..(19): PEGylated; MOD_RES (31)..(31): AMIDATION)”, in series [3] (IV), the AUC0-inf turned out to be 40431 ng·h/mL, the AUC0-t is 40250 ng·h/mL, the CL came out at 0.817 mL/min/kg and the MRT was 4.12 h. In series [3] (IV), the Vss is 0.204 L/kg and the t1/2 came to 42.78 h. In series [3] (SC), the “AUC0-inf” value was 19046 ng·h/mL, the AUC0-t came out at 18933 ng·h/mL, the CL/F worked out at 1.75 mL/min/kg and the Cmax is reported as 1879 ng/mL. In addition, in series [3] (SC), the F % is listed as 47%, the Tmax is listed as 4.00 h and the t1/2 stood at 29.98 h.

Consider “SEQ ID NO: 40: double glutamine analog PEGylated through amine linkage (Ac-WVTHQLAGLLSQSGGVVRK(PEG)NFVPTDVGPFAF-NH2; reading uncertain)”, for which, in series [3] (IV), the AUC0-inf worked out at 10666 ng·h/mL, the AUC0-t amounted to 10651 ng·h/mL, the CL came out at 3.12 mL/min/kg and the MRT is 2.63 h. In series [3] (IV), this compound came in with a Vss of 0.496 L/kg and a t1/2 of 32.57 h. For the same compound, in series [3] (SC), the “AUC0-inf” value is 1223 ng·h/mL, the AUC0-t was 1212 ng·h/mL, the CL/F worked out at 27.23 mL/min/kg and the Cmax is given as 121 ng/mL. Further, in series [3] (SC), the F % was 11%, the Tmax was determined as 4.00 h and the t1/2 worked out at 27.15 h.
